The source of these data is the RNAGym collection of RNA variant scans (doi:10.7554/elife.80360).

B1: Twister Ribozyme (parent)
chain: AACACUGCCAAUGCCGGUCCCAAGCCCGGAUAAAAGUGGAGGGGGCGG

The variants in this series derive from B1. Description: self-cleavage, relative activity (ratio to wild type); higher = more cleavage; co-transcriptional.
In the case of AACACUGCCAAUGCCGGUCACAAGCCCGGAUAAAAGUGGAGGGGGCCG, the self-cleavage is 0.108. To AACACUGCCAAUGCCGGUCACAAGCCCGGAUAAAAGUGGAGGGGGCAG belongs 0.0961.

Turning to AACACUGCCAAUGCCGGUCGCAAGCCCUGAUAAAAGUGGAGGGGGCGG, the self-cleavage was determined as 0.233.

For AACACUGCCAAUGCCGGUCGCAAGCCCGGAUAAAAGUGAAGGGGGCGG, the self-cleavage is 0.106. On to AACACUGCCAAUGCCGGUCGCAAGCCCGGAUAAAAGUGUAGGGGGCGG, for which the self-cleavage came out at 0.0983. To AACACUGCCAAUGCCGGUCGCAAGCCCGGAUAAAAGUGCAGGGGGCGG belongs 0.0945; to AACACUGCCAAUGCCGGUCGCAAGCCCGGAUAAGAGUGGAGGGGGCGG, 0.0924; to AACACUGCCAAUGCCGGUCGCAAGCCCGGAUAAUAGUGGAGGGGGCGG, 0.074. The same measure for AACACUGCCAAUGCCGGUCGCAAGCGCGGAUAAAAGUGGAGGGGGCGG: 0.093; for AACACUGCCAAUGCCGGUCGCAAGCACGGAUAAAAGUGGAGGGGGCGG: 0.0588; for AACACUGCCAAUGCCGGUCACAAGCCCGGAUAAAGGUGGAGGGGGCGG: 0.0546. In the case of AACACUGCCAAUGCCGGUCACAAGCCCGGAAAAAAGUGGAGGGGGCGG, the self-cleavage turned out to be 0.14. AACACUGCCAAUGCCGGUUCCAAGCCCGGAUAAAAGUGGAGGGGGUGG: the self-cleavage was 0.907. The same measure for AACACUGCCAAUGCCGGUUCCAAGCCCGGAUAAAAGUGGAGGGGGAGG: 0.853; for AACACUGCCAAUGCCGGUUCCAAGCCCGGAUAAAAGUGGAGGGGGGGG: 0.929; for AACACUGCCAAUGCCGGUCGCAAGCCCGGGUAAAAGUGGAGGGGGCGG: 0.233. The same measure for AACACUGCCAAUGCCGGUCGCAAGCCCGGAUAAAAGUGGAGGGGGCGG: 0.169; for AACACUGCCAAUGCCGGUCACAAGCCCGGAUAAAAGUGGAGGGGGCGG: 0.16; for AACACUGCCAAUGCCGGUUCCAAGCCCGGAUAAAAAUGGAGGGGGCGG: 0.167.

AACACUGCCAAUGCCGGUUCCAAGCCCGGAUAAAAUUGGAGGGGGCGG: the self-cleavage was 0.127. For AACACUGCCAAUGCCGGUCACAAGCCCGGAUAAAAGUGGAGGGGGGGG, the self-cleavage worked out at 0.0871. AACACUGCCAAUGCCGGUUCCAAGCCUGGAUAAAAGUGGAGGGGGCGG: the self-cleavage was determined as 0.802. The same measure for AACACUGCCAAUGCCGGUUCCAAGCCCGGAUAAACGUGGAGGGGGCGG: 1.05; for AACACUGCCAAUGCCGGUUCCAAGCCCGGAUAAAAGUGGAGGGGUCGG: 0.563; for AACACUGCCAAUGCCGGUCACAAGCCCGGAUAAAAGUGGAGGUGGCGG: 0.105.

Take AACACUGCCAAUGCCGGUCACAAGCCCGGAUAAAAGUGGAGGCGGCGG: the self-cleavage worked out at 0.0847. To AACACUGCCAAUGCCGGUCACAAGCCCGGAUAAAAGUGGAGGAGGCGG belongs 0.118. The same measure for AACACUGCCAAUGCCGGUUCCAAGACCGGAUAAAAGUGGAGGGGGCGG: 0.113. The same measure for AACACUGCCAAUGCCGGUUCCAAGCCCGGAUAAAAGUGGUGGGGGCGG: 0.133; for AACACUGCCAAUGCCGGUUCCAAGCCCGGAUAAAAGUGGCGGGGGCGG: 0.152. Regarding AACACUGCCAAUGCCGGUCACAAGCCCGGAUAAAAGUGGUGGGGGCGG, the self-cleavage came to 0.106. Turning to AACACUGCCAAUGCCGGUCACAAGCCCGGAUAAAAGUGGGGGGGGCGG, the self-cleavage came to 0.0838. To AACACUGCCAAUGCCGGUCACAAGCCCGGAUAAAAGUGGCGGGGGCGG belongs 0.129; to AACACUGCCAAUGCCGGUCACAAGCCCGGAUAAAAGUGGAAGGGGCGG, 0.0878; to AACACUGCCAAUGCCGGUCACAAGCCCGGAUAAAAUUGGAGGGGGCGG, 0.0906.

On to AACACUGCCAAUGCCGGUCACAAGCCCGGAUAAAACUGGAGGGGGCGG, for which the self-cleavage was determined as 0.0494.

In the case of AACACUGCCAAUGCCGGUCGCAAGCCCGGAUAAAAGUGGCGGGGGCGG, the self-cleavage was determined as 0.109. The same measure for AACACUGCCAAUGCCGGUCGCAAGCCCGGAUAAAAGUGGUGGGGGCGG: 0.0992; for AACACUGCCAAUGCCGGUUCCAAGCCCGGAUAAAAGUGGAGAGGGCGG: 0.17; for AACACUGCCAAUGCCGGUUCCAAGCCCGGAUAAAAGUGGAGCGGGCGG: 0.221. Consider AACACUGCCAAUGCCGGUCACAAGCCCGGAUCAAAGUGGAGGGGGCGG, for which the self-cleavage is 0.111.

Take AACACUGCCAAUGCCGGUCACAAGCCCGGAUGAAAGUGGAGGGGGCGG: the self-cleavage came to 0.145. AACACUGCCAAUGCCGGUCACAAGCCCGGAUAAAAGUGGAGGGCGCGG: the self-cleavage was determined as 0.146.

AACACUGCCAAUGCCGGUUCCAAGCCCGGAUAAAAGGGGAGGGGGCGG: the self-cleavage was 0.621. For the variant AACACUGCCAAUGCCGGUUCCAAGCCCGGAUAAAAGAGGAGGGGGCGG, the self-cleavage came out at 0.406. Take AACACUGCCAAUGCCGGUUCCAAGCCCGGCUAAAAGUGGAGGGGGCGG: the self-cleavage worked out at 0.591. AACACUGCCAAUGCCGGUUCCAAGCCCGGUUAAAAGUGGAGGGGGCGG: the self-cleavage is 0.82. Regarding AACACUGCCAAUGCCGGUCACAAGCCCGGAUAUAAGUGGAGGGGGCGG, the self-cleavage was found to be 0.0982. For AACACUGCCAAUGCCGGUUCCAAGCCCGGAUAAAAGUGGACGGGGCGG, the self-cleavage was 0.104. Turning to AACACUGCCAAUGCCGGUUCCAAGCCCGGAUAAAAGUGGAAGGGGCGG, the self-cleavage stood at 0.134. Consider AACACUGCCAAUGCCGGUUCCAAGCGCGGAUAAAAGUGGAGGGGGCGG, for which the self-cleavage worked out at 0.0861.

Turning to AACACUGCCAAUGCCGGUUCCAAGCUCGGAUAAAAGUGGAGGGGGCGG, the self-cleavage was determined as 0.0803. To AACACUGCCAAUGCCGGUCACAAGGCCGGAUAAAAGUGGAGGGGGCGG belongs 0.0839; to AACACUGCCAAUGCCGGUCACAAGUCCGGAUAAAAGUGGAGGGGGCGG, 0.112.
